According to the supplement of paper PMC7877785:
± gives the uncertainty stated by the source.

Assay: self-splicing fitness, log relative to wild type (ln ratio); higher = more splicing; Tetrahymena group I intron in knt gene, E. coli kanamycin selection, DiMSum; sequences stand for … in CUCUCU…GGAGGGAAAAGUUAUCAGGCAUGCACCUGGUAGCUAGUCUUUAAACCAAUAGAUUGCAUCGGUUUAAAAGGCAAGACCGUCAAAUUGCGGGAAAGGGGUCAACAGCCGUUCAGUACCAAGUCUCAGGGGAAACUUUGAGAUGGCCUUGCAAAGGGUAUGGUAAUAAGCUGACGGACAUGGUCCUAACCACGCAGCCAAGUCCUAAGUCAACAGAUCUUCUGUUGAUAUGGAUGCAGUUCACAGACUAAAUGUCGGUCGGGGAAGAUGUAUUCUUCUCAUAAGAUAUAGUCGGACCUCUCCUUAAUGGGAGCUAGCGGAUGAAGUGAUGCAACACUGGAGCCGCUGGGAACUAAUUUGUAUGCGAAAGUAUAUUGAUUAGUUUUGGAGUACUCGUGGUCG
Summary of the method: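 Colonies from six replicate transformations of E. coli BL21(DE3) were pooled and amplicon-sequenced on an Illumina HiSeq 2500. The library placed an intron with all eight P1ex-region nucleotides randomised inside the knt kanamycin-resistance gene on pET-22b(+), and cells grew overnight at 37°C or 30°C on LB agar with or without 25 μg/mL kanamycin (plus 100 μg/mL carbenicillin, 50 μM IPTG, 0.2% rhamnose). Fitness is the DiMSum error-weighted combination of wild-type-normalised replicate fold changes, kanamycin versus none.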

Sequence	self-splicing fitness (ln) (30 °C)	self-splicing fitness (ln) (37 °C)
CUCAAGCAAUAUUACGGUCG	-1.96 ± 0.098	-1.19 ± 0.12
GUUCAGCAAUAUUACGAAAG	-0.36 ± 0.24	0.462 ± 0.22
CGCAAGCAAUAUUACGCAUA	-3.81 ± 0.3	-0.539 ± 0.15
GCAAAGCAAUAUUACGGGUU	-2.11 ± 0.12	-1.67 ± 0.16
GCUUAGCAAUAUUACGUGUA	-1.03 ± 0.077	-0.175 ± 0.083
UGGUAGCAAUAUUACGACUC	-0.656 ± 0.23	-0.807 ± 0.35
AGAGAGCAAUAUUACGCGGU	-3.79 ± 0.43	-2.17 ± 0.46
GUUCAGCAAUAUUACGGUAU	-0.357 ± 0.062	0.309 ± 0.073
ACCCAGCAAUAUUACGGCUU	-0.338 ± 0.071	0.053 ± 0.089
AGCUAGCAAUAUUACGCUAG	-3.02 ± 0.21	-2.23 ± 0.22
CCCAAGCAAUAUUACGCCAA	-2.82 ± 0.16	-2.47 ± 0.2
AUCAAGCAAUAUUACGACUG	-1.59 ± 0.11	-1.27 ± 0.13
GGCAAGCAAUAUUACGAGAG	-3.94 ± 0.24	-2.26 ± 0.15
UCUUAGCAAUAUUACGUGAG	-0.751 ± 0.079	-0.366 ± 0.14
UAAAAGCAAUAUUACGGAUA	-1.35 ± 0.12	0.0185 ± 0.12
UGCCAGCAAUAUUACGGUGA	-0.97 ± 0.075	0.0352 ± 0.092
CCUCAGCAAUAUUACGGCCC	-4.21 ± 0.39	
CCUCAGCAAUAUUACGGACC		-3.01 ± 0.31
GCACAGCAAUAUUACGCCCU	-0.527 ± 0.094	0.00502 ± 0.11
CCACAGCAAUAUUACGGAAG	-1.87 ± 0.098	-0.76 ± 0.1
GAUUAGCAAUAUUACGUAUG	-1.75 ± 0.065	-1.33 ± 0.087

Sequence	self-splicing fitness (ln) (30 °C)	self-splicing fitness (ln) (37 °C)
CGAUAGCAAUAUUACGCGGG	-4.21 ± 0.31	-2.42 ± 0.24
UUCAAGCAAUAUUACGUUAG	-3.23 ± 0.12	-1.32 ± 0.089
UUAAAGCAAUAUUACGCAUU	-2.76 ± 0.15	-2.86 ± 0.27
UCUCAGCAAUAUUACGACGG	-0.806 ± 0.071	-0.119 ± 0.094
GCUUAGCAAUAUUACGGGGG	-1.53 ± 0.11	-1.54 ± 0.15
AACAAGCAAUAUUACGUGCA	-0.969 ± 0.048	-0.28 ± 0.065
GGGCAGCAAUAUUACGACUA	-0.237 ± 0.094	0.125 ± 0.11
CAAAAGCAAUAUUACGGCUA	-0.892 ± 0.088	-0.809 ± 0.083
AAAAAGCAAUAUUACGAGGU	-4.25 ± 0.29	-3.5 ± 0.23
GGACAGCAAUAUUACGAUCG	-0.492 ± 0.099	0.519 ± 0.11
CUUAAGCAAUAUUACGGACC		-0.536 ± 0.36
UCACAGCAAUAUUACGCCAU	-3.28 ± 0.19	-2.22 ± 0.18
CUCCAGCAAUAUUACGAAGA		-3.41 ± 0.42
GUGGAGCAAUAUUACGUAAC	-0.784 ± 0.18	-0.991 ± 0.28
AGUCAGCAAUAUUACGUGAC	-2.96 ± 0.24	-2.86 ± 0.2
GGGUAGCAAUAUUACGCGUA	-0.49 ± 0.1	-0.35 ± 0.11
CCCUAGCAAUAUUACGGGCG	-1.68 ± 0.089	-0.597 ± 0.1
UCUAAGCAAUAUUACGGCUA	-1.86 ± 0.27	-3.14 ± 0.47
GACGAGCAAUAUUACGACGG	-1.82 ± 0.28	
UUGCAGCAAUAUUACGGAAG	-3.02 ± 0.34	-0.414 ± 0.14
